Reference: IntAct's records for PubMed 20308429

Target: vinc_mouse Vcl (UniProt Q64727)
Sequence (Q64727 whole entry): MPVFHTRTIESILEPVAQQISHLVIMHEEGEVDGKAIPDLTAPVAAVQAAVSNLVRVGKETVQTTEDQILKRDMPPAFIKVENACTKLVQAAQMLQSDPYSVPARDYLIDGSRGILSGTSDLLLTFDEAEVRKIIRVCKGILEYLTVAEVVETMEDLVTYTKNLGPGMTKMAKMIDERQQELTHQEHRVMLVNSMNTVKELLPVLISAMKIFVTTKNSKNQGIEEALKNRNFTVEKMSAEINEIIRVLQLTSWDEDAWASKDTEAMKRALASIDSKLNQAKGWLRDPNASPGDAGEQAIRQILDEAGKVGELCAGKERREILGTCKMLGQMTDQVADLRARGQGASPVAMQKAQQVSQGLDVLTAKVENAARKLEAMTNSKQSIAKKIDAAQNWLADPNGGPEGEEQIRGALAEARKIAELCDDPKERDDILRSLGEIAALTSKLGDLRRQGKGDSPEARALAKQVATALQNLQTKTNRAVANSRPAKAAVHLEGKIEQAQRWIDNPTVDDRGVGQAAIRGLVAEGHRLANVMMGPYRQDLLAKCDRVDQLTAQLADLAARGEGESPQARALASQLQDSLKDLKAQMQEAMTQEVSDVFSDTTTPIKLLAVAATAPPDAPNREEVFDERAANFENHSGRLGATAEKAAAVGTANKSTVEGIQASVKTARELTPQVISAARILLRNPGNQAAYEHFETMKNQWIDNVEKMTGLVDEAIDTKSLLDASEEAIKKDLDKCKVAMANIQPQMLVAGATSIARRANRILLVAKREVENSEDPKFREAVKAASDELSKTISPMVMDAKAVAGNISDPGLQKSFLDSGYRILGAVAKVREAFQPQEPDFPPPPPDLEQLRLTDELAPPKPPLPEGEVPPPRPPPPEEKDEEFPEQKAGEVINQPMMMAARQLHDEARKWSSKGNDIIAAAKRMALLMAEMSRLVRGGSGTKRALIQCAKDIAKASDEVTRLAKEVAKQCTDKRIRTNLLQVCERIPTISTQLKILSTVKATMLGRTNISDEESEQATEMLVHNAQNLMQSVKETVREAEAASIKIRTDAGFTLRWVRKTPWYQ

Sequence of Paxillin (Gallus gallus (Chicken)), P49024 Y31F;Y118F (P49024 whole entry Y31F/Y118F): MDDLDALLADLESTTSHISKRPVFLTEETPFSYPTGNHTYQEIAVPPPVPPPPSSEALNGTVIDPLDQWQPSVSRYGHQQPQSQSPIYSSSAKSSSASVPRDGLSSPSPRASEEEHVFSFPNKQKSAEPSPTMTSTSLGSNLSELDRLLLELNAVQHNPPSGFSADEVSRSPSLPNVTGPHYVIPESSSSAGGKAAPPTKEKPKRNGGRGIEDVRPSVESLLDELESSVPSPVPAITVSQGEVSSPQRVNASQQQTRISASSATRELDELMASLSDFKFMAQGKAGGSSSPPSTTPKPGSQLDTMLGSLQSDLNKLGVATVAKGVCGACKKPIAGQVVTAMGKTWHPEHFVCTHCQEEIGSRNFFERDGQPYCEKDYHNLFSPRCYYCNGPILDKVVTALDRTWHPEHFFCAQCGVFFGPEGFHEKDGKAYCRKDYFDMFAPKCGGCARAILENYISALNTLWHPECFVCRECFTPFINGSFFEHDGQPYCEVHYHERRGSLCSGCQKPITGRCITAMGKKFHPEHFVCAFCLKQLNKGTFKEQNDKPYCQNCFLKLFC
Sequence of Paxillin (Gallus gallus (Chicken)), P49024 Y31E;Y118E (P49024 whole entry Y31E/Y118E): as the sequence (P49024 whole entry Y31F/Y118F) above, with F31E, F118E counted along it

Row | Substance | effect of a mutation on the interaction
1 | Paxillin (Gallus gallus (Chicken)), P49024 Y31F;Y118F | decreasing interaction
2 | Paxillin (Gallus gallus (Chicken)), P49024 Y31E;Y118E | increasing interaction
